Series [1] addresses T1, GST-PRDM10 441-880 (central zinc finger array) (UniProt Q3UTQ7 441-880).
T1 sequence: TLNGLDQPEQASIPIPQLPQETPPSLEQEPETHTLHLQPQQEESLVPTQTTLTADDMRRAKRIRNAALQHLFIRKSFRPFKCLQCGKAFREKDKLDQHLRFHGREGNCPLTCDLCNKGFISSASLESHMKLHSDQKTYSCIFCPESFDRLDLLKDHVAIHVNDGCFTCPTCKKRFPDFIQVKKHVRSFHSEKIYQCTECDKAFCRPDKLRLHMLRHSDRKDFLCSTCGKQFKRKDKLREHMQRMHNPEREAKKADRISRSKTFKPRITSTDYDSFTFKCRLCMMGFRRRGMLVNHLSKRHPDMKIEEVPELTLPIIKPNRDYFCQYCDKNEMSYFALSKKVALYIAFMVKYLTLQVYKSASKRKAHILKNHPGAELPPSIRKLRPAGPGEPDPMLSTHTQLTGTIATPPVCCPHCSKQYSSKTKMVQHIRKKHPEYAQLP
The series is described as follows: EMSA; 125-1000 nM protein, 10 nM probe; 0.4 uM ZnCl2; EMSA: 6 mM HEPES-KOH pH 7.9, 6% glycerol, 100 ug/mL BSA, 0.4 uM ZnCl2, 20 ug/mL poly(dI-dC), room temperature 20 min; 6% native PAGE in 0.25x TBE. The settings on record: protein: recombinant; tags: GST; label: 5'-biotin; blunt.

For series [2], the target named is T1, GST-PRDM10 441-880 (central zinc finger …). The series is described as follows: competition; EMSA, 20- to 320-fold excess over 10 nM labeled WT probe; 0.4 uM ZnCl2; EMSA: 6 mM HEPES-KOH pH 7.9, 6% glycerol, 100 ug/mL BSA, 0.4 uM ZnCl2, 20 ug/mL poly(dI-dC), room temperature 20 min; 6% native PAGE in 0.25x TBE. As to conditions: protein: recombinant; tags: GST; blunt.

B1: WT probe (dsDNA)
DNA 1: CTGGCACAGTGGTCGCGCCCGGCCCGCC
DNA 2: GGCGGGCCGGGCGCGACCACTGTGCCAG
With B1, the binding result in series [1] is “binds”.

B2: WT unlabeled competitor (dsDNA)
DNA 1: CTGGCACAGTGGTCGCGCCCGGCCCGCC
DNA 2: GGCGGGCCGGGCGCGACCACTGTGCCAG
In the case of B2, the binding result in series [2] is “binds”.
